Our source for the Kd and fold improvement of KD against the construct with the original linker values is patent US20180369334A1 (Stanford University, published 2018).

Experiment [1] deals with human endothelial cells (HUVECs). The experiment is described as follows: cell binding assay on human endothelial cells.
Experiment [2] shares this target. The experiment is described as follows: binding to HUVEC; the column prints only 'HUVEC (nM)'.
Experiment [3] concerns the target T1, VEGFR2 (on PAE-VEGFR2 cells) (UniProt P35968 20-1356, limits assumed).
T1 construct: whole, on cells
The experiment is described as follows: binding to PAE-VEGFR2 cells; the column prints only 'VEGFR2 (nM)'.

Experiment [4] has as its target T2, VEGFR1 (on PAE-VEGFR1 cells) (UniProt P17948 27-1338, limits assumed).
T2 construct: whole, on cells
The experiment is described as follows: binding to PAE-VEGFR1 cells; the column prints only 'VEGFR1 (nM)', the text calls it an affinity.

T1 sequence (P35968 20-1356 limits assumed): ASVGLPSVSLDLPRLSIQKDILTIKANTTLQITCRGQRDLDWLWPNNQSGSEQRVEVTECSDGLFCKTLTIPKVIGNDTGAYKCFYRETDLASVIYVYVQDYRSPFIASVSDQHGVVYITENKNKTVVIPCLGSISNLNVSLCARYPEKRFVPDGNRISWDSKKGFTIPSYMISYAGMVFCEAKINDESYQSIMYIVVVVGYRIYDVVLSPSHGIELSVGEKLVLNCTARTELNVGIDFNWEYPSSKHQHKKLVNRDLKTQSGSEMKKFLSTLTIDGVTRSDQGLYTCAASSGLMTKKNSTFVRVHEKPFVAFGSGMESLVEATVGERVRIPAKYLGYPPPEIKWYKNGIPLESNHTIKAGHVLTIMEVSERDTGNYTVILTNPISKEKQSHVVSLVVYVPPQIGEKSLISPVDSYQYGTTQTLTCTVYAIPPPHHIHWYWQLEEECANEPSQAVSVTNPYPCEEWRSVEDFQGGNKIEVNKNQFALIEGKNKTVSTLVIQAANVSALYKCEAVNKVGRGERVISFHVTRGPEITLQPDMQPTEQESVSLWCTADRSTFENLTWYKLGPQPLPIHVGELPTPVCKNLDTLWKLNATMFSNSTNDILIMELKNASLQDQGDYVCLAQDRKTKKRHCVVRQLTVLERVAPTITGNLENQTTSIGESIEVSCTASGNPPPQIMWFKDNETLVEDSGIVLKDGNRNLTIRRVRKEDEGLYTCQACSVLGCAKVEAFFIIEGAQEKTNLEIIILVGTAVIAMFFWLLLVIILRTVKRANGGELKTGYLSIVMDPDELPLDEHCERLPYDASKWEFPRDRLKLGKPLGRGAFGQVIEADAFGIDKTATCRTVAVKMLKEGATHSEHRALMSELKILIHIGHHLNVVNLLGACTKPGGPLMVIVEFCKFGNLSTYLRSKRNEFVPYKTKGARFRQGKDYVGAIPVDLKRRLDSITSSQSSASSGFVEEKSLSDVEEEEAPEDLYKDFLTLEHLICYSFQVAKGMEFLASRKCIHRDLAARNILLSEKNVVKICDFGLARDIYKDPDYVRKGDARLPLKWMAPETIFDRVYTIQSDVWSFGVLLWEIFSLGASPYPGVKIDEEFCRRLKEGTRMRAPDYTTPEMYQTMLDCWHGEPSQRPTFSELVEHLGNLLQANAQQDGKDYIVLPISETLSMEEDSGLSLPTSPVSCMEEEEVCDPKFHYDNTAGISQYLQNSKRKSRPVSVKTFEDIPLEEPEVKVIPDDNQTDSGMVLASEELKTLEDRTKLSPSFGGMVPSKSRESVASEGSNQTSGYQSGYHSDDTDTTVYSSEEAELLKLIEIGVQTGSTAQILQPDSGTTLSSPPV
T2 sequence (P17948 27-1338 limits assumed): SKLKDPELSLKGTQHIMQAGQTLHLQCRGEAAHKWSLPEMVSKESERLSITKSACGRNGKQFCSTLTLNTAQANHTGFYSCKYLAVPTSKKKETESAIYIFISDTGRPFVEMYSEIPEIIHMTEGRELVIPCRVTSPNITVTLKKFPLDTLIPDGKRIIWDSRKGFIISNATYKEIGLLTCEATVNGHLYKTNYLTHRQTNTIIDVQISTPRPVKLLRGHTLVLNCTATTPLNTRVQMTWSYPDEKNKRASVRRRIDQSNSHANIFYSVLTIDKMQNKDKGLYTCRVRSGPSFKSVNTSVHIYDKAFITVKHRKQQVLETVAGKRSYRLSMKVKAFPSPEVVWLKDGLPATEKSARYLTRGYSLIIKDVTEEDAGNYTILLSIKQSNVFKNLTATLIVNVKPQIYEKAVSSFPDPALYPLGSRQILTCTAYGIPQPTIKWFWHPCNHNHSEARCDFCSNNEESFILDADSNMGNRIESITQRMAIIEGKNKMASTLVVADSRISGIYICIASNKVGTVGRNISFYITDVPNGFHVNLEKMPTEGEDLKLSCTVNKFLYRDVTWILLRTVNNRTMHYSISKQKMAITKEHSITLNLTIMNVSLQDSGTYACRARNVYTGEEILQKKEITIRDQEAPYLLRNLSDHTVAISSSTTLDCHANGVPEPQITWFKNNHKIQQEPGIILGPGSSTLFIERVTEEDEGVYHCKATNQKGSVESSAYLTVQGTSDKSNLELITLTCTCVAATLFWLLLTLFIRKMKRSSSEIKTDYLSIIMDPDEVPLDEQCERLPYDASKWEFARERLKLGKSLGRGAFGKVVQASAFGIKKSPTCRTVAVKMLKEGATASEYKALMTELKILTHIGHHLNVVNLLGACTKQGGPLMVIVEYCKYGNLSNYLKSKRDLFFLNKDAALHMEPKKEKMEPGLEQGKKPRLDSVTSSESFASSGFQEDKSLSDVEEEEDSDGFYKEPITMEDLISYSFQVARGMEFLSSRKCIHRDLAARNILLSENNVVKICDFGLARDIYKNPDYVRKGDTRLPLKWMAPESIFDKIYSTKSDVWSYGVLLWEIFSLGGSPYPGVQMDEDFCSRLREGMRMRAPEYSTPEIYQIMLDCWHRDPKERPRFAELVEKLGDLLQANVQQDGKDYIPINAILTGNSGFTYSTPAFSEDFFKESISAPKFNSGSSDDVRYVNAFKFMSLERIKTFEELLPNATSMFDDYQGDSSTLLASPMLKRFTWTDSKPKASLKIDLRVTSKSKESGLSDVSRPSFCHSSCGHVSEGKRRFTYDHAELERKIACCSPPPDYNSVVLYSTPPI

B1: scVEGF-mE7I (SEQ ID NO: 75), construct with the original linker (ligand)
chain: EVVKAMDVYQRSYCHPIETLVDILQEYPDEIGYIFKPSCVPLMRCGGCCNGAGLECVPTEESNITMQIMRIKPHRGQHIGEMSFLQHNKCECRPKKDGGGGSGGGGSGGGGSGGGGSEVVRFMDVYQRSYCHPIETLVDIFQEYPNEIEYAFKPSCVPLMRCGGCCNNEGLECVPTEESNITMQIMRPSVRRGDSPASHIGEMSFLQHNKCECRPKKD
In experiment [1], B1 showed a Kd of 0.32 nM. This counts as sub-nanomolar.

B2: scVEGF-mE7I construct containing the L3A linker (ligand)
chain: EVVKAMDVYQRSYCHPIETLVDILQEYPDEIGYIFKPSCVPLMRCGGCCNGAGLECVPTEESNITMQIMRIKPHRGQHIGEMSFLQHNKCECRPKKDGGGGSGGGGSGGGGSGGGGSEVVRFMDVYQRSYCHPIETLVDIFQEYPNEIEYAFKPSCVPLMRCGGCCNNEGLECVPTEESNITMQIMRPSVRRGDSPASHIGEMSFLQHNKCECRPKKD
In experiment [1], B2 registered a Kd of 0.16 nM and a fold improvement of KD against the construct with the original linker of 2 fold.

B3: scVEGFMUT-E (mE, SEQ ID NO.: 55) (ligand)
chain: EVVKAMDVYQRSYCHPIETLVDILQEYPDEIGYIFKPSCVPLMRCGGCCNGAGLECVPTEESNITMQIMRIKPHRGQHIGEMSFLQHNKCECRPKKDGSTSGSGKSSEGKGEVVRFMDVYQRSYCHPIETLVDIFQEYPNEIEYAFKPSCVPLMRCGGCCNNEGLECVPTEESNITMQIMRAKPHQGQHIGEMSFLQHNKCECRPKKD
notes: Chain 1: F36L, E44G, D63G, Q87R; also called scVEGFmE
B3: the Kd in experiment [2] was 0.4 nM; in experiment [3], 0.5 nM; in experiment [4] it was 0.55 nM.
